Series [1] concerns the molecule itself. Description: crystal structure; CYRI-BΔN alone, selenomethionine SAD, 2.37Å, two molecules in the asymmetric unit; crystals at 291K, 0.1M carboxylic acid, 8% MPD_P1K_P33, 0.1M MOPS/HEPES-Na pH 8.0.
Another series concerns the target Rac1Q61L (human, UniProt P63000 1-192, Q61L). Description: SPR; Biacore T200; anti-MBP antibody coupled on a CM5 chip; MBP-CYRI-BΔN captured (~800 RU) on flow-cell 2, MBP (400 RU) on flow-cell 1; Rac1Q61L 0.625μM-80μM as analyte. Particulars: both partners purified. (In general: Surface plasmon resonance follows binding to a sensor surface in real time, without labels.)

The term Kd denotes the free concentration of one partner at which half of the binding sites on the other are occupied at equilibrium, for simple one-to-one binding. A higher Kd goes with lower affinity.

B1: mouse CYRI-B residues 26-324 (CYRI-BΔN) (domain or fragment, UniProt Q921M7 26-324, looked up)
chain: AQPTESEKEIYNQVNVVLKDAEGILEDLQSYRGAGHEIREAIQHPADEKLQEKAWGAVVPLVGKLKKFYEFSQRLEAALRGLLGALTSTPYSPTQHLEREQALAKQFAEILHFTLRFDELKMTNPAIQNDFSYYRRTLSRMRINNVPAEGENEVNNELANRMSLFYAEATPMLKTLSDATTKFVSENKNLPIENTTDCLSTMASVCRVMLETPEYRSRFTNEETVSFCLRVMVGVIILYDHVHPVGAFAKTSKIDMKGCIKVLKDQPPNSVEGLLNALRYTTKHLNDETTSKQIRSMLQ
modifications: selenomethionine labelled
notes: CYRI-B (Fam49B), mouse, residues 26-324 (entire DUF1394 domain; N-terminal residues 1-25 truncated); Two copies in the asymmetric unit of PDB 7AJL; also called Fam49B; source: E. coli B834 (DE3), selenomethionine labelled, purified (HisTrap, TEV, HisTrap flow-through, Superdex S200); not shown: His10, N-terminal, cleaved; MBP, N-terminal, cleaved
B1: the binding result in series [1] is recorded as “binds”.

B2: MBP-CYRI-BΔN (domain or fragment)
chain: B1 chain
notes: The purification of the uncleaved MBP fusion used for SPR is not described; source: E. coli BL21 pLysS; not shown: His10, N-terminal, kept; MBP, N-terminal, kept
In the series with Rac1Q61L, B2 displayed a Kd of 25 µM.

For the origin of these results see article PMC7955166, “Structural Basis of CYRI-B Direct Competition with Scar/WAVE Complex for Rac1” (Structure(London, England:1993), 2021).
